In patent US20240141071A1 (LAVA THERAPEUTICS N V, published 2024):
Values joined by “and” are separate entries in the source; they are usually repeats but may differ in a detail not shown here. Equal values may be shown once. Each block holds one binder with its values, some of them ahead of it.

Experiments:
[1] = target: T1, recombinant purified CD123-Fc fusion protein (Bio-Techne/R&D Systems) (human, UniProt P26951 19-305); experiment: BLI, CD123-Fc on anti-human IgG Fc capture sensors; SD 4.3
T1 construct: Bought; also called Fc-fusion of the CD123 antigen; recombinant CD123
T1 sequence: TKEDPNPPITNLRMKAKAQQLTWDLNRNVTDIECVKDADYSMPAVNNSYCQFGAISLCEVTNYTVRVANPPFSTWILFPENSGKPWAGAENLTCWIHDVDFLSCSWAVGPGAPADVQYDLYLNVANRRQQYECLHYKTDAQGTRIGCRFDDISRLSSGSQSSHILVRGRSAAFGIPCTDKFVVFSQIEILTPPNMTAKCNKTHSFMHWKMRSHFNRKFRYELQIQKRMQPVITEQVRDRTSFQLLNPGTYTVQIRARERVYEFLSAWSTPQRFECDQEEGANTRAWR
Procedure: (§1) To determine the kinetics of binding of humanized 1D2-5C8var1 variants to CD123, recombinant purified CD123-Fc fusion protein (Bio-Techne/R&D Systems) was loaded to a density of 1 nm onto anti-human IgG Fc Capture sensors (using a concentration of 5 μg/ml) for an Octet Red96e (Sartorius) instrument. Different sensors were then dipped in different concentrations of humanized 1D2-5C8var1 variants, starting at 50 nM and two-fold dilutions thereof; dilutions were made in 10× kinetic buffer (10×KB) provided by the supplier. From the obtained sensorgrams, the kinetic association- and dissociation rate constants were determined by curve fitting. The association- and dissociation rate constants, when fitting was possible, were used to calculate the affinity of the humanized 1D2-5C8var1 variants for binding to CD123. […] For reference, the non-humanized (parental) 1D2 was included in these experiments.

[2] = target: T2, human CD123 expressed on cells (human, UniProt P26951 19-378); experiment: cell-based or functional assay
[3] = target: T1, recombinant purified CD123-Fc fusion …; experiment: BLI, CD123-Fc on anti-human IgG Fc capture sensors; SD 0.7
Procedure: as §1

BSA = target: T3, BSA (bovine, UniProt P02769); experiment: ELISA, wells coated with 1% BSA (panel BSA), HRP anti-VHH detection
T3 construct: also called bovine serum albumin, negative control coating
T3 sequence (P02769 25-607 limits assumed): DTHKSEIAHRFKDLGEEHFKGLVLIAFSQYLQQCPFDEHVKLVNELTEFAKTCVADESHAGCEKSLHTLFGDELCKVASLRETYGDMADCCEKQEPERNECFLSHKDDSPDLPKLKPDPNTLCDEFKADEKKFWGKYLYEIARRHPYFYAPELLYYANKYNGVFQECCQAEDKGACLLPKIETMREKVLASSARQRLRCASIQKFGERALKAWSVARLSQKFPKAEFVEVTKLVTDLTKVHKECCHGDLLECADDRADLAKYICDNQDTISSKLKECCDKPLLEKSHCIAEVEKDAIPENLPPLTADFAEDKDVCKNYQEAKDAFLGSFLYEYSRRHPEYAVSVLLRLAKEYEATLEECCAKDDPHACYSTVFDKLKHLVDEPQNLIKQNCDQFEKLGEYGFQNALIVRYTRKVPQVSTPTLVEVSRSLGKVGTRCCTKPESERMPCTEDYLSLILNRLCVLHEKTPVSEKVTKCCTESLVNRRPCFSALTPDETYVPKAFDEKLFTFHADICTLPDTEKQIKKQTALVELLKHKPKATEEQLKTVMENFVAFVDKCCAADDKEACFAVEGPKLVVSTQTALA
Text: FIG. 1: ELISA showing binding of all different bispecific VHHs to CD123, the Vγ9Vδ2 (GDT) TCR and BSA (as negative control). OD values are depicted; values are the mean of duplicate measurements; error bars indicate standard errors of the mean. A mono-valent anti-Vδ2 VHH was used as control for the TCR staining (“TCR control”) and a commercially available anti-CD123 antibody (“anti-CD123”) was used as control for the CD123 antigen coatings. “No AB” indicates a negative control without primary antibody.
Recombinant, purified CD123 antigen (extra-cellular domain; Sino Biological), or an Fc-fusion of the CD123 antigen (Bio-Techne/R&D Systems) was coated to the wells of an ELISA plate (Greiner) in PBS at a concentration of 2 μg/ml. As a negative control, wells were coated with 1% (w/v) BSA. An in-house designed, produced and purified recombinant form of the extra-cellular domains of the human Vγ9 and Vδ2 TCR chains fused to a human Fc was also coated as antigen at 2 μg/ml. After coating and blocking of the wells with 2% (w/v) BSA, bispecific VHH proteins were tested for binding at a saturating concentration of 50 nM and bound VHH was detected using an HRP-labeled anti-VHH antibody (Genscript) and staining using 3,3′,5,5′-tetramethylbenzidine (TMB)/H2O2.

[4] = target: T1, recombinant purified CD123-Fc fusion …; experiment: BLI, CD123-Fc on anti-human IgG Fc capture sensors, Octet Red96e, two measurements
Procedure: To determine the kinetics of binding of 1D2-5C8var1 to CD123, recombinant purified CD123-Fc fusion protein (Bio-Techne/R&D Systems) was loaded to a density of 1nm onto anti-human IgG Fc Capture sensors (using a concentration of 5 μg/ml) for an Octet Red96e (Sartorius) instrument. Different sensors were then dipped in different concentrations of 1D2-5C8var1; dilutions were made in 10× kinetic buffer (10×KB) provided by the supplier. From the obtained sensorgrams, the kinetic association- and dissociation rate constants were determined by curve fitting.
The latter is depicted as straight lines in the figure. This was used to determine the kinetic association- and dissociation rate constants and thereby the affinity of the anti-CD123 VHH 1D2.

[5] = target: T2, human CD123 expressed on cells; experiment: flow cytometry titration on 293F cells transiently expressing CD123, anti-VHH detection
Procedure: (§2) FIG. 3: Determination of the apparent affinity of 1D2-5C8var1 for binding to CD123 using flow cytometry. […] The geometric mean of the fluorescence intensity is plotted as a function of the antibody concentration used. The EC50 value was determined by curve fitting.
(§3) Expression constructs for human CD123 and for the common β chain of the receptor (CD131) were purchased from Invivogen. Plasmids were transformed to chemically competent DH5α bacteria and a single colony growing on selective medium was used to inoculate a 50 ml culture to amplify both constructs. […] Either plasmid alone, or a mix of the two plasmids was used for transfection. As negative control, untransfected cells were also used for flow cytometry. A day after transfection, cells were used to test the binding of the bispecific VHH using staining in FACS. Briefly, binding of a saturating concentration of 100 nM bispecific VHH to transfected cells was detected with an AF647-labeled anti-VHH (Genscript) antibody and staining was visualized using a FACS Celesta (Becton and Dickinson).
(§4) The former cells (expressing CD131) were used as negative control.

[6] = target: T4, human CD131 (common β chain of the IL3 receptor) expressed on 293F cells (human, UniProt P32927 17-897); experiment: flow cytometry on 293F cells transiently expressing CD131, AF647-labeled anti-VHH detection
T4 sequence: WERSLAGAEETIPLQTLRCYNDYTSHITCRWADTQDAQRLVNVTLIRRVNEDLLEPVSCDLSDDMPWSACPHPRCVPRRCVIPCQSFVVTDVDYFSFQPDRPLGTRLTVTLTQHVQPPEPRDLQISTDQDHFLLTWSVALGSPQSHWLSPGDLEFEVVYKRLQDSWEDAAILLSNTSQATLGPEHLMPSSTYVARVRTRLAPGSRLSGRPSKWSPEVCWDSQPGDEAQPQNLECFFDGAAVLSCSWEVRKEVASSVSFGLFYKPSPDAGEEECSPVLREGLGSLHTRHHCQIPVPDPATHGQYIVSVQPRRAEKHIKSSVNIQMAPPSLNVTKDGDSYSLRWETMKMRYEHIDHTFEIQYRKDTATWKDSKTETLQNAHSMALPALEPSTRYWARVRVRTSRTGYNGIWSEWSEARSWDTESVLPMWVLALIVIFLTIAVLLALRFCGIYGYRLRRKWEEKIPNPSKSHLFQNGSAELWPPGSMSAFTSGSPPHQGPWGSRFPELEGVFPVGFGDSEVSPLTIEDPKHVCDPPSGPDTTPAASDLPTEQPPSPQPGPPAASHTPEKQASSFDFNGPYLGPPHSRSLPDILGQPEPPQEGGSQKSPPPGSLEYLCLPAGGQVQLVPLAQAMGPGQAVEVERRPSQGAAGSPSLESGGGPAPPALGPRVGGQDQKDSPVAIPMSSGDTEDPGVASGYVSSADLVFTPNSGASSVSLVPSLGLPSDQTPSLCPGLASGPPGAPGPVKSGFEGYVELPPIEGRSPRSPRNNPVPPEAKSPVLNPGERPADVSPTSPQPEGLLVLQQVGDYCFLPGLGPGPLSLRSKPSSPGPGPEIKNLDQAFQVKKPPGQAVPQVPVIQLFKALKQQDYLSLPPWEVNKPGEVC
Procedure: as §3

[7] = target: human CD123 co-expressed with CD131 on 293F cells (human, UniProt P26951 19-378; P32927 17-897); experiment: flow cytometry titration on 293F cells transiently expressing CD123 and CD131, anti-VHH detection
Procedure: as §2, §3, §4

[8] = target: T2, human CD123 expressed on cells; experiment: flow cytometry titration on 293F cells transiently expressing CD123; apparent affinity, EC50 by curve fitting
[9] = target: T1, recombinant purified CD123-Fc fusion …; experiment: BLI, CD123-Fc on anti-human IgG Fc capture sensors; SD 0.4
Procedure: as §1

[10] = target: T1, recombinant purified CD123-Fc fusion …; experiment: BLI, CD123-Fc on anti-human IgG Fc capture sensors; SD 0.5
Procedure: as §1

[11] = target: T1, recombinant purified CD123-Fc fusion …; experiment: BLI, CD123-Fc on anti-human IgG Fc capture sensors, Octet Red96e
Procedure: as §1

[12] = target: T1, recombinant purified CD123-Fc fusion …; experiment: BLI, CD123-Fc on anti-human IgG Fc capture sensors; SD 1.5
Procedure: as §1

B1: humanized 1D2-5C8var1 variant with 1D2 var3 (SEQ ID NO:27) (bispecific antibody)
chain: EVQLVESGGGLVQPGGSLRLSCAASGRTASSYVMSWFRQAPGKEREWVAVINWNGDSTYYADSVKGRFTISRDNSKNTVYLQMNSLRAEDTAVYYCAADTRREWYRDGYWGPPARYEYDYRGQGTLVTVSSGGGGSEVQLLESGGGSVQPGGSLRLSCAASGRPFSNYAMSWFRQAPGKEREFVSAISWSGGSTSYADSVKGRFTISRDNSKNTLYLQMNSLRAEDTAVYYCAAQFSGADYGFGRLGIRGYEYDYWGQGTQVTVSSAAAEPEA
notes: See note of m19
Kd [1]: 14.9 nM

B2: 1D2-5C8var1 bispecific VHH (bispecific antibody)
chain: EVQLVESGGGLVQAGGSLRLSCAASGRTASSYVMGWFRQAPGKEREFVAVINWNGDSTYYTDSVKGRFAISRDNAKNTVYLQMNSLKPEDTAVYYCAADTRREWYRDGYWGPPARYEYDYRGQGTQVTVSSGGGGSEVQLLESGGGSVQPGGSLRLSCAASGRPFSNYAMSWFRQAPGKEREFVSAISWSGGSTSYADSVKGRFTISRDNSKNTLYLQMNSLRAEDTAVYYCAAQFSGADYGFGRLGIRGYEYDYWGQGTQVTVSSAAAEPEA
notes: Orientation N-term-anti-CD123 VHH-linker-anti-Vδ2 VHH-C-tag; also called parental 1D2
EC50 for cytotoxicity, C1R-neo target cell lysis by Vγ9Vδ2 T cells, 24 h [2]: 0.001 to 0.002 nM
EC50 of T cell activation and lysis of primary AML blasts [2]: < 0.001 nM
EC50 of THP-1 target cell lysis by Vγ9Vδ2 T cells [2]: 1000 nM
EC50 of THP-1 target cell lysis by Vγ9Vδ2 T cells, 24 h [2]: 0.001 to 0.003 nM
Kd [3]: 3.1 nM
binding result (BSA): no binding (tested: 50 nM (single concentration))
Kd [4]: 3 to 5 nM and 5 nM
EC50 (read off the curve) [5]: ~3 nM
binding result [6]: no binding (tested: 100 nM (single concentration))
EC50 (read off the curve) [7]: ~3 nM
EC50 [8]: ~3 nM

B3: humanized 1D2-5C8var1 variant with 1D2 var1 (SEQ ID NO:25) (bispecific antibody)
chain: EVQLVESGGGLVQPGGSLRLSCAASGRTASSYVMGWFRQAPGKEREFVSVINWNGDSTYYADSVKGRFTISRDNSKNTLYLQMNSLRAEDTAVYYCAADTRREWYRDGYWGPPARYEYDYRGQGTQVTVSSGGGGSEVQLLESGGGSVQPGGSLRLSCAASGRPFSNYAMSWFRQAPGKEREFVSAISWSGGSTSYADSVKGRFTISRDNSKNTLYLQMNSLRAEDTAVYYCAAQFSGADYGFGRLGIRGYEYDYWGQGTQVTVSSAAAEPEA
Kd [9]: 7.2 nM

B5: humanized 1D2-5C8var1 variant with 1D2 var7 (SEQ ID NO:31) (bispecific antibody)
chain: EVQLVESGGGLVQPGGSLRLSCAASGRTASSYVMSWVRQAPGKGLEWVSVINWNGDSTYYADSVKGRFTISRDNSKNTLYLQMNSLRAEDTAVYYCAADTRREWYRDGYWGPPARYEYDYRGQGTLVTVSSGGGGSEVQLLESGGGSVQPGGSLRLSCAASGRPFSNYAMSWFRQAPGKEREFVSAISWSGGSTSYADSVKGRFTISRDNSKNTLYLQMNSLRAEDTAVYYCAAQFSGADYGFGRLGIRGYEYDYWGQGTQVTVSSAAAEPEA
notes: See note of m19
binding result [11]: no binding (tested: 50 nM (highest concentration tested))

The remaining lines, values ahead:

Kd [10]: 2.6 nM
B4: humanized 1D2-5C8var1 variant with 1D2 var9 (SEQ ID NO:33) (bispecific antibody)
chain: EVQLVESGGGLVQAGGSLRLSCAASGRTASSYVMGWFRQAPGKEREWVAVINWNGDSTYYTDSVKGRFAISRDNAKNTVYLQMNSLRAEDTAVYYCAADTRREWYRDGYWGPPARYEYDYRGQGTQVTVSSGGGGSEVQLLESGGGSVQPGGSLRLSCAASGRPFSNYAMSWFRQAPGKEREFVSAISWSGGSTSYADSVKGRFTISRDNSKNTLYLQMNSLRAEDTAVYYCAAQFSGADYGFGRLGIRGYEYDYWGQGTQVTVSSAAAEPEA
notes: See note of m19

Kd [12]: 7.7 nM
B6: humanized 1D2-5C8var1 variant with 1D2 var5 (SEQ ID NO:29) (bispecific antibody)
chain: EVQLVESGGGLVQPGGSLRLSCAASGRTASSYVMSWFRQAPGKEREFVAVINWNGDSTYYADSVKGRFTISRDNSKNTVYLQMNSLRAEDTAVYYCAADTRREWYRDGYWGPPARYEYDYRGQGTLVTVSSGGGGSEVQLLESGGGSVQPGGSLRLSCAASGRPFSNYAMSWFRQAPGKEREFVSAISWSGGSTSYADSVKGRFTISRDNSKNTLYLQMNSLRAEDTAVYYCAAQFSGADYGFGRLGIRGYEYDYWGQGTQVTVSSAAAEPEA
notes: See note of m19
